B1: PME1 (found with purified B55 variants) [human] / B55α WT (immunopurified, Fig. 2) [not stated] (parent complex)
chain 1: MSALEKSMHLGRLPSRPPLPGSGGSQSGAKMRMGPGRKRDFSPVPWSQYFESMEDVEVENETGKDTFRVYKSGSEGPVLLLLHGGGHSALSWAVFTAAIISRVQCRIVALDLRSHGETKVKNPEDLSAETMAKDVGNVVEAMYGDLPPPIMLIGHSMGGAIAVHTASSNLVPSLLGLCMIDVVEGTAMDALNSMQNFLRGRPKTFKSLENAIEWSVKSGQIRNLESARVSMVGQVKQCEGITSPEGSKSIVEGIIEEEEEDEEGSESISKRKKEDDMETKKDHPYTWRIELAKTEKYWDGWFRGLSNLFLSCPIPKLLLLAGVDRLDKDLTIGQMQGKFQMQVLPQCGHAVHEDAPDKVAEAVATFLIRHRFAEPIGGFQCVFPGC
chain 2: MAGAGGGNDIQWCFSQVKGAVDDDVAEADIISTVEFNHSGELLATGDKGGRVVIFQQEQENKIQSHSRGEYNVYSTFQSHEPEFDYLKSLEIEEKINKIRWLPQKNAAQFLLSTNDKTIKLWKISERDKRPEGYNLKEEDGRYRDPTTVTTLRVPVFRPMDLMVEASPRRIFANAHTYHINSISINSDYETYLSADDLRINLWHLEITDRSFNIVDIKPANMEELTEVITAAEFHPNSCNTFVYSSSKGTIRLCDMRASALCDRHSKLFEEPEDPSNRSFFSEIISSISDVKFSHSGRYMMTRDYLSVKIWDLNMENRPVETYQVHEYLRSKLCSLYENDCIFDKFECCWNGSDSVVMTGSYNNFFRMFDRNTKRDITLEASRENNKPRTVLKPRKVCASGKRKKDEISVDSLDFNKKILHTAWHPKENIIAVATTNNLYIFQDKVN

Here are results for 13 variants from article PMC11446282 (2024).

Variants of B1 are the subject of the assay. The experiment in a line: immunopurification of YFP-B55α variants (IP: YFP), Western blot quantification; read off a plot.
Consider chain 2 MAGAGGGNDIQWCFSQVKGAVDDDVAEADIISTVEFNHSGELLATGDKGGRVVIFQQEQENKIQSHSRGEYNVYSTFQSHEPEFDYLKSLEIEEKINKIRWLPQKNAAQFLLSTNDKTIKLWKISERDKRPEGYNLKEEDGRYRDPTTVTTLRVPVFRPMDLMVEASPRRIFANAHTYHINSISINSDYETYLSADDLRINLWHLEITDRSFNIVDIKPANMEEATEVITAAEFHPNSCNTFVYSSSKGTIRLCDMRASALCDRHSKLFEEPEDPSNRSFFSEIISSISDVKFSHSGRYMMTRDYLSVKIWDLNMENRPVETYQVHEYLRSKLCSLYENDCIFDKFECCWNGSDSVVMTGSYNNFFRMFDRNTKRDITLEASRENNKPRTVLKPRKVCASGKRKKDEISVDSLDFNKKILHTAWHPKENIIAVATTNNLYIFQDKVN [chain 2 L225A], for which the percent of parent was about 3%.
Consider chain 2 MAGAGGGNDIQWCFSQVKGAVDDDVAEADIISTVEFNHSGELLATGDKGGRVVIFQQEQENKIQSHSRGEYNVYSTFQSHEPEFDYLKSLEIEEKINKIRWLPQKNAAQFLLSTNDKTIKLWKISERDKRPEGYNLKEEDGRYRDPTTVTTLRVPVFRPMDLMVEASPRRIFANAHTYAINSISINSDYETYLSADDLRINLWHLEITDRSFNIVDIKPANMEELTEVITAAEFHPNSCNTFVYSSSKGTIRLCDMRASALCDRHSKLFEEPEDPSNRSFFSEIISSISDVKFSHSGRYMMTRDYLSVKIWDLNMENRPVETYQVHEYLRSKLCSLYENDCIFDKFECCWNGSDSVVMTGSYNNFFRMFDRNTKRDITLEASRENNKPRTVLKPRKVCASGKRKKDEISVDSLDFNKKILHTAWHPKENIIAVATTNNLYIFQDKVN [chain 2 H179A], for which the percent of parent is about 170%.
The result for chain 2 MAGAGGGNDIQWCFSQVKGAVDDDVAEADIISTVEFNHSGELLATGDKGGRVVIFQQEQENKIQSHSRGEYNVYSTFQSHEPEFDYLKSLEIEEKINKIRWLPQKNAAQFLLSTNDKTIKLWKISERDKRPEGYNLKEEDGRYRDPTTVTTLRVPVFRPMDLMVEASPRRIFANAHTYHINSISINSDYETYLSADDLRINLWHLEITDRSFNIVDIKPANMEELTEVITAAEFHPNSCNTFVYSSSKGTIRLCDMRASALCDRHSKLFEEPEDPSNRSFFSEIISSISDVKFSHSGRYMMTRDYLSVKIWDLNMENRPVETYQVHEYLRSKLCSLYENDCIADKFECCWNGSDSVVMTGSYNNFFRMFDRNTKRDITLEASRENNKPRTVLKPRKVCASGKRKKDEISVDSLDFNKKILHTAWHPKENIIAVATTNNLYIFQDKVN [chain 2 F343A] reads about 3%.
For the variant chain 2 MAGAGGGNDIQWCFSQVKGAVDDDVAEADIISTVEFNHSGELLATGDKGGRVVIFQQEQENKIQSHSRGEYNVYSTFQSHEPEFDYLKSLEIEEKINKIRWLPQKNAAQFLLSTNDKTIKLWKISERDKRPEGYNLKEEDGRYRDPTTVTTLRVPVFRPMDLMVEASPRRIFANAHTYHINSISINSDYETYLSADDLRINLWHLEITDRSFNIVDIKPANMEELTEVIAAAEFHPNSCNTFVYSSSKGTIRLCDMRASALCDRHSKLFEEPEDPSNRSFFSEIISSISDVKFSHSGRYMMTRDYLSVKIWDLNMENRPVETYQVHEYLRSKLCSLYENDCIFDKFECCWNGSDSVVMTGSYNNFFRMFDRNTKRDITLEASRENNKPRTVLKPRKVCASGKRKKDEISVDSLDFNKKILHTAWHPKENIIAVATTNNLYIFQDKVN [chain 2 T230A], the percent of parent is about 3%.
Take chain 2 MAGAGGGNDIQWCFSQVKGAVDDDVAEADIISTVEFNHSGELLATGDKGGRVVIFQQEQENKIQSHSRGEYNVYSTFQSHEPEFDYLKSLEIEEKINKIRWLPQKNAAQFLLSTNDKTIKLWKISERDKRPEGYNLKEEDGRYRDPTTVTTLRVPVFRPMDLMVEASPRRIFANAHTAHINSISINSDYETYLSADDLRINLWHLEITDRSFNIVDIKPANMEELTEVITAAEFHPNSCNTFVYSSSKGTIRLCDMRASALCDRHSKLFEEPEDPSNRSFFSEIISSISDVKFSHSGRYMMTRDYLSVKIWDLNMENRPVETYQVHEYLRSKLCSLYENDCIFDKFECCWNGSDSVVMTGSYNNFFRMFDRNTKRDITLEASRENNKPRTVLKPRKVCASGKRKKDEISVDSLDFNKKILHTAWHPKENIIAVATTNNLYIFQDKVN [chain 2 Y178A]: the percent of parent is about 13%.
Consider chain 2 MAGAGGGNDIQWCFSQVKGAVDDDVAEADIISTVEFNHSGELLATGDKGGRVVIFQQEQENKIQSHSRGEYNVYSTFQSHEPEFDYLKSLEIEEKINKIRWLPQKNAAQFLLSTNDKTIKLWKISERDKRPEGYNLKEEDGRYRDPTTVTTLRVPVFRPMDLMVEASPRRIFANAHTYHINSISINSDYETYLSADDLRINLWHLEITDRSFNIVDIKPANMEELTEVITAAEFHPNSCNTFVYSSSKGTIRLCDMRASALCDRHSKLFEEPEDPSNRSFFSEIISSISDVKFSHSGRYMMTRDYLSVKIWDLNMENRPVETYQVHEYLRSKLCSLYENACIFDKFECCWNGSDSVVMTGSYNNFFRMFDRNTKRDITLEASRENNKPRTVLKPRKVCASGKRKKDEISVDSLDFNKKILHTAWHPKENIIAVATTNNLYIFQDKVN [chain 2 D340A], for which the percent of parent was about 50%.
The result for chain 2 MAGAGGGNDIQWCFSQVKGAVDDDVAEADIISTVEFNHSGELLATGDKGGRVVIFQQEQENKIQSHSRGEYNVYSTFQSHEPEFDYLKSLEIEEKINKIRWLPQKNAAQFLLSTNDKTIKLWKISERDKRPEGYNLKEEDGRYRDPTTVTTLRVPVFRPMDLMVEASPRRIFANAHTYHINSISINSDYETYLSADDLRINLWHLEITDRSFNIVDIKPANMEELTEVITAAEFHPNSCNTFVYSSSKGTIRLCDMRASALCDRHSKLFEEPEDPSNRSFFSEAISSISDVKFSHSGRYMMTRDYLSVKIWDLNMENRPVETYQVHEYLRSKLCSLYENDCIFDKFECCWNGSDSVVMTGSYNNFFRMFDRNTKRDITLEASRENNKPRTVLKPRKVCASGKRKKDEISVDSLDFNKKILHTAWHPKENIIAVATTNNLYIFQDKVN [chain 2 I284A] reads about 13%; that for chain 2 MAGAGGGNDIQWCFSQVKGAVDDDVAEADIISTVEFNHSGELLATGDKGGRVVIFQQEQENKIQSHSRGEYNVYSTFQSHEPEFDYLKSLEIEEKINKIRWLPQKNAAQFLLSTNDKTIKLWKISERDKRPEGYNLKEEDGRYRDPTTVTTLRVPVFRPMDLMVEASPRRIFANAHTYHINSISINSDYETYLSADDARINLWHLEITDRSFNIVDIKPANMEELTEVITAAEFHPNSCNTFVYSSSKGTIRLCDMRASALCDRHSKLFEEPEDPSNRSFFSEIISSISDVKFSHSGRYMMTRDYLSVKIWDLNMENRPVETYQVHEYLRSKLCSLYENDCIFDKFECCWNGSDSVVMTGSYNNFFRMFDRNTKRDITLEASRENNKPRTVLKPRKVCASGKRKKDEISVDSLDFNKKILHTAWHPKENIIAVATTNNLYIFQDKVN [chain 2 L198A], about 2%.
The result for chain 2 MAGAGGGNDIQWCFSQVKGAVDDDVAEADIISTVEFNHSGELLATGDKGGRVVIFQQEQENKIQSHSRGEYNVYSTFQSHEPEFDYLKSLEIEEKINKIRWLPQKNAAQFLLSTNDKTIKLWKISERDKRPEGYNLKEEDGRYRDPTTVTTLRVPVFRPMDLMVEASPRRIFANAHTYHINSISINSDYETYLSADDLRINLWHLEITDRSFNIVDIKPANMEELTEVITAAEFHPNSCNTFVYSSSKGTIRLCDMRASALCDRHSKLFEEPEDPSNRSFFSEIISSISDVKFSHSGRYMMTRDYLSVKIWDLNMENRPVETYQVHEYLRSKLCSLAENDCIFDKFECCWNGSDSVVMTGSYNNFFRMFDRNTKRDITLEASRENNKPRTVLKPRKVCASGKRKKDEISVDSLDFNKKILHTAWHPKENIIAVATTNNLYIFQDKVN [chain 2 Y337A] reads about 53%; that for chain 2 MAGAGGGNDIQWCFSQVKGAVDDDVAEADIISTVEFNHSGELLATGDKGGRVVIFQQEQENKIQSHSRGEYNVYSTFQSHEPEFDYLKSLEIEEKINKIRWLPQKNAAQFLLSTNDKTIKLWKISERDKRPEGYNLKEEDGRYRDPTTVTTLRVPVFRPMDLMVEASPRRIFANAHTYHINSISINSDYETYLSADDLRINLWHLEITDRSFNIVDIKPANMEELTEAITAAEFHPNSCNTFVYSSSKGTIRLCDMRASALCDRHSKLFEEPEDPSNRSFFSEIISSISDVKFSHSGRYMMTRDYLSVKIWDLNMENRPVETYQVHEYLRSKLCSLYENDCIFDKFECCWNGSDSVVMTGSYNNFFRMFDRNTKRDITLEASRENNKPRTVLKPRKVCASGKRKKDEISVDSLDFNKKILHTAWHPKENIIAVATTNNLYIFQDKVN [chain 2 V228A], about 9%; that for chain 2 MAGAGGGNDIQWCFSQVKGAVDDDVAEADIISTVEFNHSGELLATGDKGGRVVIFQQEQENKIQSHSRGEYNVYSTFQSHEPEFDYLKSLEIEEKINKIRWLPQKNAAQFLLSTNDKTIKLWKISERDKRPEGYNLKEEDGRYRDPTTVTTLRVPVFRPMDLMVEASPRRIFANAHTYHINSISINSDYETYLSADDLRINLWHLEITDRSFNIVDIKPANMEELTEVITAAEFHPNSCNTFVYSSSKGTIRLCDMRASALCDRHSKLFEEPEDPSNRSFFSEIISAISDVKFSHSGRYMMTRDYLSVKIWDLNMENRPVETYQVHEYLRSKLCSLYENDCIFDKFECCWNGSDSVVMTGSYNNFFRMFDRNTKRDITLEASRENNKPRTVLKPRKVCASGKRKKDEISVDSLDFNKKILHTAWHPKENIIAVATTNNLYIFQDKVN [chain 2 S287A], about 4%.
The result for chain 2 MAGAGGGNDIQWCFSQVKGAVDDDVAEADIISTVEFNHSGELLATGDKGGRVVIFQQEQENKIQSHSRGEYNVYSTFQSHEPEFDYLKSLEIEEKINKIRWLPQKNAAQFLLSTNDKTIKLWKISERDKRPEGYNLKEEDGRYRDPTTVTTLRVPVFRPMDLMVEASPRRIFANAHTYHINSISINSDYETYLSADALRINLWHLEITDRSFNIVDIKPANMEELTEVITAAEFHPNSCNTFVYSSSKGTIRLCDMRASALCDRHSKLFEEPEDPSNRSFFSEIISSISDVKFSHSGRYMMTRDYLSVKIWDLNMENRPVETYQVHEYLRSKLCSLYENDCIFDKFECCWNGSDSVVMTGSYNNFFRMFDRNTKRDITLEASRENNKPRTVLKPRKVCASGKRKKDEISVDSLDFNKKILHTAWHPKENIIAVATTNNLYIFQDKVN [chain 2 D197A] reads about 3%; that for chain 2 MAGAGGGNDIQWCFSQVKGAVDDDVAEADIISTVEFNHSGELLATGDKGGRVVIFQQEQENKIQSHSRGEYNVYSTFQSHEPEFDYLKSLEIEEKINKIRWLPQKNAAQFLLSTNDKTIKLWKISERDKRPEGYNLKEEDGRYRDPTTVTTLRVPVFRPMDLMVEASPRRIFANAHTYHINSISINSDYETYLSADDLRINLWHLEITDRSFNIVDIKPANMEELTEVITAAEFHPNSCNTFVYSSSKGTIRLCDMRASALCDRHSKLFEEPEDPSNRSAFSEIISSISDVKFSHSGRYMMTRDYLSVKIWDLNMENRPVETYQVHEYLRSKLCSLYENDCIFDKFECCWNGSDSVVMTGSYNNFFRMFDRNTKRDITLEASRENNKPRTVLKPRKVCASGKRKKDEISVDSLDFNKKILHTAWHPKENIIAVATTNNLYIFQDKVN [chain 2 F280A], about 130%.
